Measurements: patent US20090111745A1 (DOMANTIS, published 2009)

How the values were obtained:
[1] = target: T1, mouse serum albumin (mouse, UniProt P07724 25-608); experiment: phage display selection on albumin (figure legend)
T1 construct: also called MSA

[2] = target: T2, rat serum albumin (rat, UniProt P02770 25-608); experiment: BIACORE, RSA flow cell (Fc=3), fit of the single trace at 20n analyte, row 'Fc=3 -2'; KD cell shaded [contd.]
T2 construct: also called RSA
Method: (§1) dAbs that bound serum albumin on a BIACORE chip (Biacore AB) were then further analysed to obtain information on affinity. The analysis was performed using a CM5 chip (carboxymethylated dextran matrix) that was coated with serum albumin. Flow cell 1 was an uncoated, blocked negative control, flow cell 2 was coated with HSA, flow cell 3 was coated with RSA and flow cell 4 was coated with MSA. The serum albumins were immobilised in acetate buffer pH 5.5 using the BIACORE coating wizard which was programmed to aim for 500 resonance units (RUs) of coated material. Each dAb of interest was expressed in the periplasm of E. coli on a 200 mL-500 mL scale and purified from the supernatant using batch absorption to protein A-streamline affinity resin (Amersham, UK) for the VH_{^S} and to protein L-agarose affinity resin (Affitech, Norway) for the Vκs followed by elution with glycine at pH 2.2 and buffer exchange to PBS. A range of concentrations of dAb were prepared (in the range 5 nM to 5 μM) by dilution into BIACORE HBS-EP buffer and flowed across the BIACORE chip.

[3] = target: T2, rat serum albumin; experiment: BIACORE, RSA flow cell (Fc=3), fit of the single trace at 10n analyte, row 'Fc=3 -4' [contd.]
Method: as §1

[4] = target: T2, rat serum albumin; experiment: BIACORE SPR, albumin on a CM5 chip, dAb in solution
Method: as §1

[5] = target: T2, rat serum albumin; experiment: BIACORE, RSA flow cell (Fc=3), fit of the single trace at 15n analyte, row 'Fc=3 -3' [contd.]
Method: as §1

[6] = target: T2, rat serum albumin; experiment: BIACORE, RSA flow cell (Fc=3), fit of the single trace at 15n analyte, row 'Fc=3 -3'; KD cell shaded [contd.]
Method: as §1

[7] = target: T2, rat serum albumin; experiment: BIACORE, RSA flow cell (Fc=3), fit of the single trace at 5n analyte, row 'Fc=3 -5' [contd.]
Method: as §1

[8] = target: T2, rat serum albumin; experiment: table of affinities (KD); BIACORE on serum albumin-coated chip according to Example 1;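 further: surface plasmon resonance with dAbs flowed over a chip carrying human, rat or mouse serum albumin, blocked uncoated flow cell as reference, KD from on- and off-rate curve fits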
Method: as §1

[9] = target: T3, human serum albumin (human, UniProt P02768 25-609); experiment: as above
T3 construct: also called HSA; HAS
Method: as §1

[10] = target: T1, mouse serum albumin; experiment: as above
Method: as §1

[11] = target: T2, rat serum albumin; experiment: BIACORE, RSA flow cell (Fc=3), fit of the single trace at 5n analyte, row 'Fc=3 -5'; KD cell shaded [contd.]
Method: as §1

[12] = target: T2, rat serum albumin; experiment: BIACORE, RSA flow cell (Fc=3), fit of the single trace at 20n analyte, row 'Fc=3 -2' [contd.]
Method: as §1

[13] = target: T2, rat serum albumin; experiment: BIACORE, RSA flow cell (Fc=3), fit of the single trace at 25n analyte, row 'Fc=3 -1'; KD cell shaded [contd.]
Method: (§2) dAbs that bound serum albumin on a BIACORE chip (Biacore AB) were then further analysed to obtain information on affinity. The analysis was performed using a CM5 chip (carboxymethylated dextran matrix) that was coated with serum albumin. Flow cell 1 was an uncoated, blocked negative control, flow cell 2 was coated with HSA, flow cell 3 was coated with RSA and flow cell 4 was coated with MSA. The serum albumins were immobilised in acetate buffer pH 5.5 using the BIACORE coating wizard which was programmed to aim for 500 resonance units (RUs) of coated material. […] A range of concentrations of dAb were prepared (in the range 5 nM to 5 μM) by dilution into BIACORE HBS-EP buffer and flowed across the BIACORE chip.

[14] = target: T2, rat serum albumin; experiment: BIACORE, RSA flow cell (Fc=3), fit of the single trace at 10n analyte, row 'Fc=3 -4'; KD cell shaded [contd.]
Method: as §2

[15] = target: T2, rat serum albumin; experiment: BIACORE, RSA flow cell (Fc=3), fit of the single trace at 25n analyte, row 'Fc=3 -1' [contd.]
Method: as §1

[16] = target: T3, human serum albumin; experiment: BIACORE, HSA flow cell (Fc=2), fit of the single trace at 500n analyte, row 'Fc=2 - 5'; KD cell shaded [contd.]
Method: as §2

[17] = target: T3, human serum albumin; experiment: BIACORE, HSA flow cell (Fc=2), fit of the single trace at 250n analyte, row 'Fc=2 - 6'; KD cell shaded [contd.]
Method: as §2

[18] = target: T3, human serum albumin; experiment: BIACORE, HSA flow cell (Fc=2), fit of the single trace at 2000n analyte, row 'Fc=2 - 3' [contd.]
Method: as §1

[19] = target: T3, human serum albumin; experiment: BIACORE SPR, albumin on a CM5 chip, dAb in solution
Method: as §1

[20] = target: T3, human serum albumin; experiment: BIACORE, HSA flow cell (Fc=2), fit of the single trace at 2000n analyte, row 'Fc=2 - 3'; KD cell shaded [contd.]
Method: as §1

[21] = target: T3, human serum albumin; experiment: BIACORE, HSA flow cell (Fc=2), fit of the single trace at 500n analyte, row 'Fc=2 - 5' [contd.]
Method: as §1

[22] = target: T3, human serum albumin; experiment: BIACORE, HSA flow cell (Fc=2), fit of the single trace at 250n analyte, row 'Fc=2 - 6' [contd.]
Method: as §1

[23] = target: T3, human serum albumin; experiment: BIACORE, HSA flow cell (Fc=2), fit of the single trace at 1000n analyte, row 'Fc=2 - 4'; KD cell shaded [contd.]
Method: as §1

[24] = target: T3, human serum albumin; experiment: BIACORE, HSA flow cell (Fc=2), fit of the single trace at 1000n analyte, row 'Fc=2 - 4' [contd.]
Method: as §1

[25] = target: T3, human serum albumin; experiment: BIACORE, HSA flow cell (Fc=2), fit of the single trace at 125n analyte, row 'Fc=2 - 47'; KD cell shaded [contd.]
Method: as §1

[26] = target: T3, human serum albumin; experiment: BIACORE, HSA flow cell (Fc=2), fit of the single trace at 1000n analyte, row 'Fc=2 - 44' [contd.]
Method: as §1

[27] = target: T3, human serum albumin; experiment: BIACORE, HSA flow cell (Fc=2), fit of the single trace at 5000n analyte, row 'Fc=2 - 41'; KD cell not shaded [contd.]
Method: as §1

[28] = target: T3, human serum albumin; experiment: BIACORE, HSA flow cell (Fc=2), fit of the single trace at 62.5n analyte, row 'Fc=2 - 48'; KD cell shaded [contd.]
Method: as §2

[29] = target: T3, human serum albumin; experiment: BIACORE, HSA flow cell (Fc=2), fit of the single trace at 1000n analyte, row 'Fc=2 - 44'; KD cell not shaded [contd.]
Method: as §1

[30] = target: T3, human serum albumin; experiment: BIACORE, HSA flow cell (Fc=2), fit of the single trace at 2000n analyte, row 'Fc=2 - 43'; KD cell not shaded [contd.]
Method: as §1

[31] = target: T3, human serum albumin; experiment: BIACORE, HSA flow cell (Fc=2), fit of the single trace at 2000n analyte, row 'Fc=2 - 43' [contd.]
Method: as §1

[32] = target: T3, human serum albumin; experiment: BIACORE, HSA flow cell (Fc=2), fit of the single trace at 250n analyte, row 'Fc=2 - 46'; KD cell shaded [contd.]
Method: as §1

[33] = target: T3, human serum albumin; experiment: BIACORE, HSA flow cell (Fc=2), fit of the single trace at 3000n analyte, row 'Fc=2 - 42'; KD cell not shaded [contd.]
Method: as §1

[34] = target: T3, human serum albumin; experiment: BIACORE, HSA flow cell (Fc=2), fit of the single trace at 125n analyte, row 'Fc=2 - 47' [contd.]
Method: as §1

[35] = target: T3, human serum albumin; experiment: BIACORE, HSA flow cell (Fc=2), fit of the single trace at 5000n analyte, row 'Fc=2 - 41' [contd.]
Method: as §2

[36] = target: T3, human serum albumin; experiment: BIACORE, HSA flow cell (Fc=2), fit of the single trace at 62.5n analyte, row 'Fc=2 - 48' [contd.]
Method: as §1

[37] = target: T3, human serum albumin; experiment: BIACORE, HSA flow cell (Fc=2), fit of the single trace at 500n analyte, row 'Fc=2 - 45' [contd.]
Method: as §1

[38] = target: T3, human serum albumin; experiment: BIACORE, HSA flow cell (Fc=2), fit of the single trace at 3000n analyte, row 'Fc=2 - 42' [contd.]
Method: as §1

[39] = target: T3, human serum albumin; experiment: BIACORE, HSA flow cell (Fc=2), fit of the single trace at 250n analyte, row 'Fc=2 - 46' [contd.]
Method: as §1

[40] = target: T3, human serum albumin; experiment: BIACORE, HSA flow cell (Fc=2), fit of the single trace at 500n analyte, row 'Fc=2 - 45'; KD cell shaded [contd.]
Method: as §1

B1: DOM7m-12 (other)
VL: DIQMTQSPSSLSASVGDRVTITCRASQSIFRHLKWYQQKPGKAPKLLIYAASRLQSGVPSRFSGSGSGTDFTLTISSLQPEDFATYYCQQVALYPKTFGQGTKVEIKR
notes: also called MSA 12
**Q.** Does B1 bind [1]?
**A.** binds

B2: DOM7r-1 (other)
VL: DIQTTQSPSSLSASVGDRVTITCRASQYIGRYLRWYQQKPGKAPKLLIYDSSVLQSGVPSRFSGSGSGTDFTLTISSLQPEDFATYYCQQRYRMPYTFGQGTRVEIKR
**Q.** With B2 as the binder, how does the Kd [2] read?
**A.** 0.0119 µM

**Q.** And the Ka [3]?
**A.** 9.07e+07 M⁻¹

**Q.** And the koff [3]?
**A.** 0.0316 s⁻¹

**Q.** And the kon [3]?
**A.** 2.87e+06 M⁻¹ s⁻¹

**Q.** What about the Kd [4] of the same binder?
**A.** 0.01 to 0.1 µM

**Q.** And the Ka [5]?
**A.** 7.62e+07 M⁻¹

**Q.** And the koff [5]?
**A.** 0.0331 s⁻¹

**Q.** What about the kon [5] of the same binder?
**A.** 2.52e+06 M⁻¹ s⁻¹

**Q.** And the Kd [6]?
**A.** 0.0131 µM

**Q.** And the Ka [7]?
**A.** 6.12e+07 M⁻¹

**Q.** What about the koff [7] of the same binder?
**A.** 0.0316 s⁻¹

**Q.** What about the kon [7] of the same binder?
**A.** 1.93e+06 M⁻¹ s⁻¹

**Q.** What about the Kd [8] of the same binder?
**A.** 0.015 µM

**Q.** Does B2 bind [9]?
**A.** no binding

**Q.** Does B2 bind [10]?
**A.** no binding

**Q.** What about the Kd [11] of the same binder?
**A.** 0.0163 µM

**Q.** What about the Ka [12] of the same binder?
**A.** 8.41e+07 M⁻¹

**Q.** And the koff [12]?
**A.** 0.0344 s⁻¹

**Q.** What about the kon [12] of the same binder?
**A.** 2.89e+06 M⁻¹ s⁻¹

**Q.** What about the Kd [13] of the same binder?
**A.** 0.0107 µM

**Q.** And the Kd [14]?
**A.** 0.011 µM

**Q.** And the Ka [15]?
**A.** 9.35e+07 M⁻¹

**Q.** What about the koff [15] of the same binder?
**A.** 0.0345 s⁻¹

**Q.** And the kon [15]?
**A.** 3.23e+06 M⁻¹ s⁻¹

B3: DOM7h-1 (other)
VL: DIQMTQSPSSLSASVGDRVTITCRASQSISSYLNWYQQKPGKAPKLLIYRNSFLQSGVPSRFSGSGSGTDFTLTISSLQPEDFATYYCQQTYTVPPTFGQGTKVEIKQ
notes: also called DOM7-1
**Q.** With B3 as the binder, how does the Kd [16] read?
**A.** 0.429 µM

**Q.** And the Kd [17]?
**A.** 0.97 µM

**Q.** And the Ka [18]?
**A.** 1.05e+06 M⁻¹

**Q.** What about the koff [18] of the same binder?
**A.** 0.0539 s⁻¹

**Q.** What about the kon [18] of the same binder?
**A.** 56300 M⁻¹ s⁻¹

**Q.** What about the Kd [19] of the same binder?
**A.** 0.5 to 5 µM

**Q.** And the Kd [20]?
**A.** 0.957 µM

**Q.** What about the Ka [21] of the same binder?
**A.** 2.33e+06 M⁻¹

**Q.** And the koff [21]?
**A.** 0.0481 s⁻¹

**Q.** And the kon [21]?
**A.** 112000 M⁻¹ s⁻¹

**Q.** What about the Ka [22] of the same binder?
**A.** 1.03e+06 M⁻¹

**Q.** And the koff [22]?
**A.** 0.0486 s⁻¹

**Q.** And the kon [22]?
**A.** 50100 M⁻¹ s⁻¹

**Q.** And the Kd [8]?
**A.** > 5 µM

**Q.** What about the Kd [9] of the same binder?
**A.** 0.8 µM

**Q.** And the Kd [10]?
**A.** > 5 µM

**Q.** And the Kd [23]?
**A.** 0.351 µM

**Q.** And the Ka [24]?
**A.** 2.85e+06 M⁻¹

**Q.** And the koff [24]?
**A.** 0.0523 s⁻¹

**Q.** What about the kon [24] of the same binder?
**A.** 149000 M⁻¹ s⁻¹

B4: DOM7h-7 (other)
VL: DIQMTQSPSSLSASVGDRVTITCRASQSISSYLNWYQQKPGKAPKLLIYRNSQLQSGVPSRFSGSGSGTDFTLTISSLQPEDFATYYCQQTFAVPPTFGQGTKVEIKR
**Q.** For B4, which Kd [25] is on record?
**A.** 0.662 µM

**Q.** And the Ka [26]?
**A.** 5.93e+06 M⁻¹

**Q.** What about the koff [26] of the same binder?
**A.** 0.105 s⁻¹

**Q.** And the kon [26]?
**A.** 623000 M⁻¹ s⁻¹

**Q.** What about the Kd [27] of the same binder?
**A.** 9710 µM

**Q.** And the Kd [19]?
**A.** 0.1 to 0.5 µM

**Q.** And the Kd [28]?
**A.** 0.2 µM

**Q.** And the Kd [29]?
**A.** 0.169 µM

**Q.** What about the Kd [30] of the same binder?
**A.** 0.43 µM

**Q.** What about the Ka [31] of the same binder?
**A.** 2.33e+06 M⁻¹

**Q.** And the koff [31]?
**A.** 0.108 s⁻¹

**Q.** What about the kon [31] of the same binder?
**A.** 251000 M⁻¹ s⁻¹

**Q.** And the Kd [32]?
**A.** 0.353 µM

**Q.** What about the Kd [33] of the same binder?
**A.** 45.1 µM

**Q.** And the Ka [34]?
**A.** 1.51e+06 M⁻¹

**Q.** What about the koff [34] of the same binder?
**A.** 0.0946 s⁻¹

**Q.** What about the kon [34] of the same binder?
**A.** 143000 M⁻¹ s⁻¹

**Q.** What about the Kd [8] of the same binder?
**A.** > 5 µM

**Q.** What about the Kd [9] of the same binder?
**A.** 0.4 µM

**Q.** What about the Kd [10] of the same binder?
**A.** > 5 µM

**Q.** What about the koff [35] of the same binder?
**A.** 0.107 s⁻¹

**Q.** What about the Ka [36] of the same binder?
**A.** 5.01e+06 M⁻¹

**Q.** What about the koff [36] of the same binder?
**A.** 0.1 s⁻¹

**Q.** And the kon [36]?
**A.** 501000 M⁻¹ s⁻¹

**Q.** What about the Ka [37] of the same binder?
**A.** 2.93e+06 M⁻¹

**Q.** And the koff [37]?
**A.** 0.103 s⁻¹

**Q.** And the kon [37]?
**A.** 302000 M⁻¹ s⁻¹

**Q.** And the Ka [38]?
**A.** 22100 M⁻¹

**Q.** And the koff [38]?
**A.** 0.106 s⁻¹

**Q.** And the kon [38]?
**A.** 2350 M⁻¹ s⁻¹

**Q.** What about the Ka [39] of the same binder?
**A.** 2.83e+06 M⁻¹

**Q.** And the koff [39]?
**A.** 0.0998 s⁻¹

**Q.** And the kon [39]?
**A.** 283000 M⁻¹ s⁻¹

**Q.** What about the Kd [40] of the same binder?
**A.** 0.341 µM
